Measurements taken from patent US20140363465A1.

Molecular target: SIINFEKL:H-2K^b complex on the surface of A3.1A7 macrophage cells (chicken)
Assay: cell-based or functional assay

IL-2 production by the RF33.70 T cell hybridoma (sandwich ELISA), SIINFEKL peptide concentration giving a detectable response: < 0.1 pg/mL | level of IL-2 production generated in response to free SIINFEKL peptide: < 275 pg/mL
Sequence: T cell receptor of the RF33.70 T-T hybridoma (CD8+, SIINFEKL-specific, H-2K^b-restricted) (TCR)
